These results are taken from publication PMC12072466, “Mechanisms of Viral DNA Replication of Human Papillomavirus: E2 Protein-Dependent Recruitment of E1 DNA Helicase to the Origin of DNA Replication” (International Journal of Molecular Sciences, 2025).

Data set [1] deals with T1, E1 helicase;E2 (Human papillomavirus 16 (Methods 4.2; …, UniProt P03114;P03120 1-649;1-365, |). Kind of data set: EMSA; 4 mM Mg2+, 1.4 mM ATP; E2 2.8 nM, E1 43-347 nM; C3* complex even at low E1. Conditions: protein: recombinant;recombinant; tags: C-terminal 10xHis;C-terminal 10xHis; chain copies: 6;2; label: 5' 32P; blunt. (In general: Mobility shift assays separate free from complexed probe on a gel.)
T1 sequence (P03120 whole entry, one chain of several): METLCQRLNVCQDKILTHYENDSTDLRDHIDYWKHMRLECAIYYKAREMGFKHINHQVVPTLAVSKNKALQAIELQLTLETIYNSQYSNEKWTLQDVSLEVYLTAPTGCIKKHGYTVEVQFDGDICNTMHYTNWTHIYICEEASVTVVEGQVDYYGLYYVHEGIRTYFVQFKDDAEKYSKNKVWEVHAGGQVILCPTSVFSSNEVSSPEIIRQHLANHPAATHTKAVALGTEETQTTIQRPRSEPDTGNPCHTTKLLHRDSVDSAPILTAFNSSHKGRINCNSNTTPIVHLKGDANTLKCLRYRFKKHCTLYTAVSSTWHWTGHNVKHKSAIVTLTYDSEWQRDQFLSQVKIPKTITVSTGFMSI

Data set [2] deals with T2, E2 (Human papillomavirus 16 (Methods 4.2; …, UniProt P03120 1-365). Kind of data set: EMSA; 4 mM Mg2+, 1.4 mM ATP; E2 2.8 nM; C1* complex, E2 dimer. The note with it: protein: recombinant; tags: C-terminal 10xHis; chain copies: 2; label: 5' 32P; blunt.
T2 sequence (P03120 whole entry): as the sequence (P03120 whole entry, one chain of several) above
Data set [3] has as its target T1, E1 helicase;E2. Description: EMSA; 4 mM Mg2+, 1.4 mM ATP; E2 2.8 nM, E1 43-347 nM; C2* and C3* complexes. The note with it: protein: recombinant;recombinant; tags: C-terminal 10xHis;C-terminal 10xHis; chain copies: 6;2; label: 5' 32P; blunt.
For data set [4], the target named is T2, E2. Kind of data set: EMSA; 4 mM Mg2+, 1.4 mM ATP; E2 2.8 nM; C1* complex, two E2 dimers. The note with it: protein: recombinant; tags: C-terminal 10xHis; chain copies: 2; label: 5' 32P; blunt.
Data set [5] concerns the molecule itself. Kind of data set: dynamic light scattering; purified E1 in solution; oligomeric state; conditions not shown (Figure S3).

B1: Oligo II, E2 BS1+2 (50 bp) (dsDNA)
DNA 1: GGCGGGACCGAAAACGGTTCAACCGAAAACGGTTATATATAAACCAGCCC
DNA 2: GGGCTGGTTTATATATAACCGTTTTCGGTTGAACCGTTTTCGGTCCCGCC
Consider B1, for which the binding result in the data set with E1 helicase;E2 [1] is reported as “binds”.

B2: Oligo III, E2 BS (24 bp) (dsDNA)
DNA 1: CTTGCAACCGTTTTCGGTTGCCCT
DNA 2: AGGGCAACCGAAAACGGTTGCAAG
B2: in the data set with E2 [2], the binding result is given as “binds”.

B3: Oligo I, E2 BS1+2+E1BS (124 bp) (dsDNA)
DNA 1: GTAACCCACACCCTACATATTTCCTTCTTATACTTAATAACAATCTTAGTTTAAAAAAGAGGAGGGACCGAAAACGGTTCAACCGAAAACGGTTATATATAAACCAGCCCAAAAAATTAGCAGA
DNA 2: TCTGCTAATTTTTTGGGCTGGTTTATATATAACCGTTTTCGGTTGAACCGTTTTCGGTCCCTCCTCTTTTTTAAACTAAGATTGTTATTAAGTATAAGAAGGAAATATGTAGGGTGTGGGTTAC
Turning to B3, the binding result with E1 helicase;E2 [3] and with E2 [4] was “binds” throughout.

B4: full-length HPV16 E1 helicase (enzyme)
chain: MADPAGTNGEEGTGCNGWFYVEAVVEKKTGDAISDDENENDSDTGEDLVDFIVNDNDYLTQAETETAHALFTAQEAKQHRDAVQVLKRKYLVSPLSDISGCVDNNISPRLKAICIEKQSRAAKRRLFESEDSGYGNTEVETQQMLQVEGRHETETPCSQYSGGSGGGCSQYSSGSGGEGVSERHTICQTPLTNILNVLKTSNAKAAMLAKFKELYGVSFSELVRPFKSNKSTCCDWCIAAFGLTPSIADSIKTLLQQYCLYLHIQSLACSWGMVVLLLVRYKCGKNRETIEKLLSKLLCVSPMCMMIEPPKLRSTAAALYWYKTGISNISEVYGDTPEWIQRQTVLQHSFNDCTFELSQMVQWAYDNDIVDDSEIAYKYAQLADTNSNASAFLKSNSQAKIVKDCATMCRHYKRAEKKQMSMSQWIKYRCDRVDDGGDWKQIVMFLRYQGVEFMSFLTALKRFLQGIPKKNCILLYGAANTGKSLFGMSLMKFLQGSVICFVNSKSHFWLQPLADAKIGMLDDATVPCWNYIDDNLRNALDGNLVSMDVKHRPLVQLKCPPLLITSNINAGTDSRWPYLHNRLVVFTFPNEFPFDENGNPVYELNDKNWKSFFSRTWSRLSLHEDEDKENDGDSLPTFKCVSGQNTNTL
notes: Replication protein E1 (DNA helicase) of human papillomavirus type 16, full-length, codon-optimized synthetic gene in pET28a; about 75 kDa on SDS-PAGE; Hexamer in solution by dynamic light scattering; also called HPV E1; E1 DNA helicase
One may read the stoichiometry N as the number of molecules, sites or subunits per partner or assembly. Take B4: the “stoichiometry N” value in data set [5] came to 6.
